PMC12153350, “Evolution of carbapenemase activity in the class C β-lactamase ADC-1” (mBio, 2025)

Tests used:
ADC-1 = biological target: T1, ADC-1 (Acinetobacter baumannii, UniProt Q9L4R5); test: X-ray crystal structure of acyl-enzyme (soak); conditions: covalent; acyl-enzyme at Ser64; two binding modes, monomers A and B
T1 construct: gene ampC; expressed and purified as in earlier work (gene in pET24a(+)); dimer in asymmetric unit

[1] = test system: C[C@@H](O)[C@H]1C(=O)N2C(C(=O)O)=C(SCCN=CN)C[C@H]12; test: purified protein; conditions: 50 mM sodium phosphate, pH 7.4, 22°C
[2] = test system: C[C@@H](O)[C@H]1C(=O)N2C(C(=O)O)=C(S[C@@H]3CN[C@H](C(=O)N(C)C)C3)[C@H](C)[C@H]12; test: purified protein; conditions: 50 mM sodium phosphate, pH 7.4, 22°C
[3] = test system: C[C@@H](O)[C@H]1C(=O)N2C(C(=O)O)=C(S[C@@H]3CN[C@H](C(=O)Nc4cccc(C(=O)O)c4)C3)[C@H](C)[C@H]12; test: purified protein; conditions: 50 mM sodium phosphate, pH 7.4, 22°C
[4] = test system: CC1(C)S[C@@H]2[C@H](NC(=O)[C@H](N)c3ccccc3)C(=O)N2[C@H]1C(=O)O; test: purified protein; conditions: 50 mM sodium phosphate, pH 7.4, 22°C
[5] = test system: C[C@@H](O)[C@H]1C(=O)N2C(C(=O)O)=C(S[C@@H]3CN[C@H](CNS(N)(=O)=O)C3)[C@H](C)[C@H]12; test: purified protein; conditions: 50 mM sodium phosphate, pH 7.4, 22°C

Compound | X-ray crystal structure of acyl-enzyme (soak) (ADC-1) | Km [1] | kcat [1] | kcat/Km [1] | Km [2] | kcat [2] | kcat/Km [2] | kcat [3] | kcat/Km [3] | kcat [4] | kcat/Km [4] | Km [3] | Km [5] | kcat [5] | kcat/Km [5]
C[C@@H](O)[C@H]1C(=O)N2C(C(=O)O)=C(S[C@@H]3CN[C@H](C(=O)Nc4cccc(C(=O)O)c4)C3)[C@H](C)[C@H]12 [ETP, ertapenem] | The crystal structure of the ADC-1–ertapenem acyl–enzyme complex shows a clear dimorphism between the two monomers |  |  |  |  |  |  |  |  |  |  |  |  |  | 
ADC-1 (Acinetobacter baumannii) |  | 1.3 ± 0.2 µM | 0.001 s⁻¹ | 810 M⁻¹ s⁻¹ | 11 ± 1 µM | 0.0034 s⁻¹ | 310 M⁻¹ s⁻¹ | 0.00037 s⁻¹ | ≥ 370 M⁻¹ s⁻¹ |  |  |  |  |  | 
ADC-68 (Acinetobacter baumannii) |  | 1.0 ± 0.2 µM | 0.0036 ± 0.0001 s⁻¹ | 3600 ± 700 M⁻¹ s⁻¹ | 50 ± 4 µM | 0.028 ± 0.001 s⁻¹ | 550 ± 40 M⁻¹ s⁻¹ | 0.011 ± 0.001 s⁻¹ | 3300 ± 700 M⁻¹ s⁻¹ | 3.2 ± 0.1 s⁻¹ | ≥ 650000 M⁻¹ s⁻¹ | 3.5 ± 0.7 µM | 6.0 ± 0.4 µM | 0.0049 ± 0.0001 s⁻¹ | 820 ± 60 M⁻¹ s⁻¹
